The text below walks through data of paper PMC4390396.

Substrate in this series: O=C(O)c1ccc(O)cc1
The series can be described thus: cells, lysate or membranes.

B1: E. coli UbiA (EcUbiA) (Escherichia coli K-12; R60A) (protein)
chain: MEWSLTQNKLLAFHRLMRTDKPIGALLLLWPTLWALWVATPGVPQLWILAVFVAGVWLMAAAGCVVNDYADRKFDGHVKRTANRPLPSGAVTEKEARALFVVLVLISFLLVLTLNTMTILLSIAALALAWVYPFMKRYTHLPQVVLGAAFGWSIPMAFAAVSESVPLSCWLMFLANILWAVAYDTQYAMVDRDDDVKIGIKSTAILFGQYDKLIIGILQIGVLALMAIIGELNGLGWGYYWSILVAGALFVYQQKLIANREREACFKAFMNNNYVGLVLFLGLAMSYWHF
Broadly, the Km is the concentration of substrate that gives half-maximal velocity. Take B1: the Michaelis-Menten constant (Km) is 3000 µM.
